Usually Kd stands for a measure of binding affinity in units of concentration.

The target in test [1] is T1, recombinant cynomolgus monkey B7H3 protein (cynomolgus monkey, UniProt Q7TPB4 26-248 (rat entry)).
T1 construct: also called SINO BIOLOGICAL Catalog No. 90806-C02H-50
T1 chain: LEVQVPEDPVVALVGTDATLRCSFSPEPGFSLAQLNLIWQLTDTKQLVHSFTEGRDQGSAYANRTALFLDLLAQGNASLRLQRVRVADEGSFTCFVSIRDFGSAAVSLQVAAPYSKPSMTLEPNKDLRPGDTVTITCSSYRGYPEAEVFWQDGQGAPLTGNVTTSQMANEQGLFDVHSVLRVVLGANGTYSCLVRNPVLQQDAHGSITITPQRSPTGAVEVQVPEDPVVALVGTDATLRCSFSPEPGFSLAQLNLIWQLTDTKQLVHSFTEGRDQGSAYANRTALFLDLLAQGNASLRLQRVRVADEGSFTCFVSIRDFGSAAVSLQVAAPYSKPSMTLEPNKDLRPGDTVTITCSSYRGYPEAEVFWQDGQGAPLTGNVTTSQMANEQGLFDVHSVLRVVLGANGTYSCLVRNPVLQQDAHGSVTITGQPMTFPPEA
Put plainly: bio-layer interferometry (ForteBio), hybridoma antibody. (In general: In BLI a coated tip is dipped into the sample, and binding shifts an interference pattern.)

Test [2] has as its target T2, recombinant human 4Ig-B7H3 protein (human, UniProt Q5ZPR3 29-461).
T2 construct: also called human B7H3 protein; SINO BIOLOGICAL Catalog No. 11188-H08H
T2 sequence: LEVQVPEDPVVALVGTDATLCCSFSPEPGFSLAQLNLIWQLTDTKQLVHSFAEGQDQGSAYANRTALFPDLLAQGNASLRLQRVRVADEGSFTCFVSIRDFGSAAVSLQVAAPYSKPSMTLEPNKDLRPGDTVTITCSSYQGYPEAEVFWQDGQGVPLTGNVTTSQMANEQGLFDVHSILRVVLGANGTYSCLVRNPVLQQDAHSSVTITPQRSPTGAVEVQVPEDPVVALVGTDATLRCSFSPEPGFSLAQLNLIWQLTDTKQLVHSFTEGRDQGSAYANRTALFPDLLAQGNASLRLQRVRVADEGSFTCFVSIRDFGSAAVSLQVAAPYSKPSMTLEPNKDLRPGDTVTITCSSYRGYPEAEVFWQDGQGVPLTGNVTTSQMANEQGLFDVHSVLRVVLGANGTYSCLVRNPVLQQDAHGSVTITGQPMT
The test is described as above.

For test [3], the target named is T3, cynomolgus monkey B7H3 expressed on CHO cells (CHO-cynoB7H3) (cynomolgus monkey, UniProt Q7TPB4 26-316 (rat entry)).
T3 chain: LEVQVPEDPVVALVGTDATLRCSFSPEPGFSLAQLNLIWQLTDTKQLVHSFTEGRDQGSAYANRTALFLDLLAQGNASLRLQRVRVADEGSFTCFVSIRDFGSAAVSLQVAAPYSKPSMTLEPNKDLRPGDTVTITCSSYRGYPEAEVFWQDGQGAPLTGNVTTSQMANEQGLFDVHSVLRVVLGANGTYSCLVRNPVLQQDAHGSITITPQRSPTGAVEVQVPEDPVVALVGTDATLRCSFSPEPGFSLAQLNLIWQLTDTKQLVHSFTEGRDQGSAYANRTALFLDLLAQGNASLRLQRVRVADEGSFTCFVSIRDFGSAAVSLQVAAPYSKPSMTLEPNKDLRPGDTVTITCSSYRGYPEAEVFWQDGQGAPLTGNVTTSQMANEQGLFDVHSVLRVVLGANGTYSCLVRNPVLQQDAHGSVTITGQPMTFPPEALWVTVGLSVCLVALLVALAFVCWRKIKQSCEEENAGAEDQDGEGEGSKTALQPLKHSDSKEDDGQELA
The experiment in a line: flow cytometry, hybridoma supernatant on CHO-cynoB7H3 cells. (In general: In flow cytometry, cells or beads pass a laser one at a time.)

B1: 20G5 (hybridoma clone antibody) (antibody, V domains shown)
VH: EVQLQQSVPELVKPGASVKISCKTSGYTFTEYIMHWVKQSHGKNLEWIGGINPNNGGTTYNQKFKDKATLTVDKSSSTAYMELHNLTSEDSAVYYCTRRTPPWHFAVWGAGTSLTVSS
VL: DIVLTQSPTIMSASPGEKVTMTCSASSSVSYIHWYQQKSGTSPKRWIFDTSRLASGVPARFSGSGSGTSYSLTISSMEAEDAATYYCQQWSSAPLTFGTGTTLELK
For the molecule B1, the dissociation constant (Kd) in test [1] was determined as 0.59 nM; in test [2] it was 0.362 nM. Besides, in test [3], the binding result is “binds”.

B2: 19A2 (hybridoma clone antibody) (antibody, V domains shown)
VH: EVQLQQSGAELVRPGASVKLSCKTSGYIFTSYWIHWIKQRSGQGLEWIARIYPGTDSTFYNEKFKGRATLTADKSSSTVYLQLNSLKSEDSAVYFCHFITASDWYFDVWGAGTTVTVSS
VL: DIVLTQSPAIMSASPGEKVTLTCSVSSSVNSNYLYWYQQKPGSSPKLWIYGTSNLASGVPARFSGSGSGPSYSLTISSMEAEDAASYFCYQWSSYPFTFGSGTKLEIK
For the molecule B2, the dissociation constant Kd in test [1] came to 0.977 nM; in test [2] it was 0.987 nM. The binding result in test [3] is given as “binds”.
